Experimental data: PMC5360189 (Molecular cell, 2016)

B1: urea carboxylase (guanidine carboxylase) (Oleomonas sagaranensis) (protein)
chain: MFKKILIANRGEIAARVIKTARKMGIATVAVHSEADRFTLPVLAADEAICLGPAPAKESYLRAEAIVQACIDTGAEAVHPGYGFLSENAGFAEALAAKGIRFIGPRPEHLRDFGLKHTARALAEAAGVPLLPGTGILLSAEEALAAAHEIGYPVMLKSTAGGGGIGMSLCHDASELQARFEAVQRMASSSFGDARVYIERFVSTARHVEVQIFGDGKGNVVALGERDCSLQRRNQKVVEETPAPGLSPELRARLHAAAVALGKAVAYESAGTVEFIYDVARGDFSFLEVNTRLQVEHPVTESVFGVDLVEWMIRQAAGELLLPAQGSLVPRGAAIEVRLYAENPQANFRPQTGRLTEVAFPDDIRVDTWVATGTEVTPFYDPMLAKVIVTGADRPAAIAALSDALAKTKVWGIETNLAYLRAIAASDVFTSGAVSTAALGQFVFTAPTIEVIVAGAQTSVQDWPGRLGLWDVGVPPSGPFDDRSFRLANRILGNAEGAAGLECTLSGPTLKFHGDALIALAGAEMPAALDGVAVPMLTAIPVKAGQTLSLGQIKGAGQRTYLAVRGGIDGPKFLGARACFSLGQFGGHATGVLKAGDTLHIAAETAGEPMPADEKPLITRDWVIGVHYGPHGAPDFFQDADIDDLFAATYEVHFNSARTGVRLIGPKPRWARADGGEAGLHPSNIHDNAYAIGAIDFTGDMPIILGPDGPSLGGFVCPAVIARDELWKAGQLKPGDKVRFVPHGMAAPQVITSKDIGTPILGTIDGGPVPVVYRRAGDDYLLVEYGPMVLDIALRLRIHLLAQAVREARLPAIIDLTPGIRSLQIHYDSRVLKTATLVAALREIEAGLPPAEAVKVPSRIVHLPLSWNDPSIQLAARKYQELVRPNAPWCPSNIEFIRRINGLGSVDDVQNIIFDASYLVLGLGDVYLGAPVATPVDPRHRLVTTKYNPARTWTPENAVGIGGAYMCIYGMEGPGGYQLFGRTVQMWNAWRTTPVFTPGHPWLLRFFDQIRFFPVSEQELIEAREAFPHGRYPVRIEETTFDYAQHAAFLAAERPAIEAAKARQQTAFEVERQDWKARGLDSFVVEDGPAASDADVPEGQTPVEAQVTGNVWKIIAEEGTNVAAGDIVVIVESMKMEMEIRSPVAGKVTALRCQPGRTVQAGQIVALIEAA

How the values were obtained:
Clo SugE = type: binding, Clostridiales bacterium oral taxon 876
purified protein [1] = substrate: NC(N)=O; assay: purified protein
purified protein [2] = substrate: N=C(N)N; assay: purified protein

Molecule	Kd (Clo SugE) [µM]	Km (purified protein [1]) [µM]	Km (purified protein [2]) [µM]
N=C(N)N [guanidine]	~1000		
B1		5200	190
